Laboratory results published in publication PMC10352329.
One block for each substance: values may come before it.

Experiments:
[1] = molecular target: human p300BRP (residues 1048–1282), 4A-substituted mutant (R1133A, K1134A, R1137A, K1140A) (human) (UniProt Q09472); assay: MST; as a2, but p300BRP incubated beforehand with 10 μM CBP30 (inhibitor of the bromodomain pocket) for at least 20 min
[2] = molecular target: human p300BRP (residues 1048–1282), wild type (human) (UniProt Q09472); assay: as above
[3] = molecular target: human p300BRP (residues 1048–1282), 4A-substituted mutant (R1133A, K1134A, R1137A, K1140A) (human) (UniProt Q09472); assay: MST; p300BRP fluorescently labeled (His tag Labeling Kit), 2-fold serial dilutions of 180-bp nucleosome; 10 mM HEPES-NaOH pH 7.4, 150 mM NaCl, 0.05% Tween-20; 25 °C; Hill equation, half-saturation concentration (K1/2)
[4] = molecular target: human p300BRP (residues 1048–1282), wild type (human) (UniProt Q09472); assay: as above
[5] = tested on: p300 BRP 4A (Homo sapiens); assay: MST; details: human octamer H2A type 1-B/E, H2B type 1-J, MST and cryo-EM sample buffers not in the material, MST 10 µM CBP30 where stated
[6] = tested on: p300 BRP wild-type (Homo sapiens); assay: MST; details: human octamer H2A type 1-B/E, H2B type 1-J, MST and cryo-EM sample buffers not in the material, MST 10 µM CBP30 where stated
[7] = molecular target: Histone H4 K12ac/K16ac (Homo sapiens) (UniProt P62805); details: cited from earlier work
[8] = molecular target: Histone H4 K8ac/K12ac (Homo sapiens) (UniProt P62805); details: cited from earlier work
[9] = no CBP30, H3.1, H4 with K12ac/K16ac

human p300BRP (residues 1048–1282), wild type (human), sequence (Q09472 1048-1282): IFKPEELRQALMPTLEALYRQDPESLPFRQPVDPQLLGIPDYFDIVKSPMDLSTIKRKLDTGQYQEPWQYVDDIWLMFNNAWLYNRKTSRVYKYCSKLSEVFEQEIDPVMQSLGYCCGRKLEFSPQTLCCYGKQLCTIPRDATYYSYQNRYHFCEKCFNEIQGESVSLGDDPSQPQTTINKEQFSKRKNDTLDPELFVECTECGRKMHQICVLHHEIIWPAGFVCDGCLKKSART
human p300BRP (residues 1048–1282), 4A-substituted mutant (R1133A, K1134A, R1137A, K1140A) (human), sequence (Q09472 1048-1282 R1133A/K1134A/R1137A/K1140A): as the sequence (Q09472 1048-1282) above, with R86A, K87A, R90A, K93A counted along it

K1/2 (half-saturation concentration) after incubation with CBP30 [1]: 3.5 nM | K1/2 (half-saturation concentration) after incubation with CBP30 [2]: 1.2 nM | K1/2 (half-saturation concentration) [3]: 1.8 nM | K1/2 (half-saturation concentration) [4]: 0.35 nM
Substance: 180-bp nucleosome having H4K12ac/K16ac (H4acNuc) (from UniProt P04908 1-130; P68431 1-136; P62805 1-103) (complex)

K1/2 (half-saturation concentration) [4]: 2.2 nM
Substance: 180-bp unmodified nucleosome (from UniProt P04908 1-130; P68431 1-136; P62805 1-103) (complex)

Substance: H4acNuc (180-bp, H4K12ac/K16ac)
K half ([5]; H3.1, H4 with K12ac/K16ac): 3.5 nM | K half [5, 9]: 1.8 nM | K half ([6]; H3.1, H4 with K12ac/K16ac): 1.2 nM | K half [6, 9]: 0.35 nM

Substance: p300/CBP bromodomain bromodomain (from UniProt Q09472)
Kd [7]: 25 µM | Kd [8]: 90 µM

Substance: unmodified 180-bp nucleosome
K half ([5]; no CBP30, H3.1, H4, unmodified): 7.3 nM | K half ([6]; no CBP30, H3.1, H4, unmodified): 2.2 nM
